# According to IntAct's records for PubMed 32493513:
# B1: Disrupted in schizophrenia 1 protein (Homo sapiens), Q9NRI5 (parent)
# chain: MPGGGPQGAPAAAGGGGVSHRAGSRDCLPPAACFRRRRLARRPGYMRSSTGPGIGFLSPAVGTLFRFPGGVSGEESHHSESRARQCGLDSRGLLVRSPVSKSAAAPTVTSVRGTSAHFGIQLRGGTRLPDRLSWPCGPGSAGWQQEFAAMDSSETLDASWEAACSDGARRVRAAGSLPSAELSSNSCSPGCGPEVPPTPPGSHSAFTSSFSFIRLSLGSAGERGEAEGCPPSREAESHCQSPQEMGAKAASLDGPHEDPRCLSRPFSLLATRVSADLAQAARNSSRPERDMHSLPDMDPGSSSSLDPSLAGCGGDGSSGSGDAHSWDTLLRKWEPVLRDCLLRNRRQMEVISLRLKLQKLQEDAVENDDYDKAETLQQRLEDLEQEKISLHFQLPSRQPALSSFLGHLAAQVQAALRRGATQQASGDDTHTPLRMEPRLLEPTAQDSLHVSITRRDWLLQEKQQLQKEIEALQARMFVLEAKDQQLRREIEEQEQQLQWQGCDLTPLVGQLSLGQLQEVSKALQDTLASAGQIPFHAEPPETIRSLQERIKSLNLSLKEITTKVCMSEKFCSTLRKKVNDIETQLPALLEAKMHAISGNHFWTAKDLTEEIRSLTSEREGLEGLLSKLLVLSSRNVKKLGSVKEDYNRLRREVEHQETAYETSVKENTMKYMETLKNKLCSCKCPLLGKVWEADLEACRLLIQSLQLQEARGSLSVEDERQMDDLEGAAPPIPPRLHSEDKRKTPLKVLEEWKTHLIPSLHCAGGEQKEESYILSAELGEKCEDIGKKLLYLEDQLHTAIHSHDEDLIQSLRRELQMVKETLQAMILQLQPAKEAGEREAAASCMTAGVHEAQA
# B2: Disrupted in schizophrenia 1 homolog (Mus musculus), Q811T9 (parent)
# chain: MQGGGPRGAPIHSPSHGADSGHGLPPAVAPQRRRLTRRPGYMRSTAGSGIGFLSPAVGMPHPSSAGLTGQQSQHSQSKAGQCGLDPGSHCQASLVGKPFLKSSLVPAVASEGHLHPAQRSMRKRPVHFAVHSKNDSRQSERLTGSFKPGDSGFWQELLSSDSFKSLAPSLDAPWNKGSRGLKTVKPLASPALNGPADIASLPGFQDTFTSSFSFIQLSLGAAGERGEAEGCLPSREAEPLHQRPQEMAAEASSSDRPHGDPRHLWTFSLHAAPGLADLAQVTRSSSRQSECGTVSSSSSDTGFSSQDASSAGGRGDQGGGWADAHGWHTLLREWEPMLQDYLLSNRRQLEVTSLILKLQKCQEKVVEDGDYDTAETLRQRLEELEQEKGRLSWALPSQQPALRSFLGYLAAQIQVALHGATQRAGSDDPEAPLEGQLRTTAQDSLPASITRRDWLIREKQRLQKEIEALQARMSALEAKEKRLSQELEEQEVLLRWPGCDLMALVAQMSPGQLQEVSKALGETLTSANQAPFQVEPPETLRSLRERTKSLNLAVRELTAQVCSGEKLCSSLRRRLSDLDTRLPALLEAKMLALSGSCFSTAKELTEEIWALSSEREGLEMFLGRLLALSSRNSRRLGIVKEDHLRCRQDLALQDAAHKTRMKANTVKCMEVLEGQLSSCRCPLLGRVWKADLETCQLLMQSLQLQEAGSSPHAEDEEQVHSTGEAAQTAALAVPRTPHPEEEKSPLQVLQEWDTHSALSPHCAAGPWKEDSHIVSAEVGEKCEAIGVKLLHLEDQLLGAMYSHDEALFQSLQGELQTVKETLQAMILQLQPTKEAGEASASYPTAGAQETEA
# Variants of: B1
# Conditions: with drd2_human DRD2, P14416
# drd2_human DRD2, P14416, sequence (P14416 whole entry): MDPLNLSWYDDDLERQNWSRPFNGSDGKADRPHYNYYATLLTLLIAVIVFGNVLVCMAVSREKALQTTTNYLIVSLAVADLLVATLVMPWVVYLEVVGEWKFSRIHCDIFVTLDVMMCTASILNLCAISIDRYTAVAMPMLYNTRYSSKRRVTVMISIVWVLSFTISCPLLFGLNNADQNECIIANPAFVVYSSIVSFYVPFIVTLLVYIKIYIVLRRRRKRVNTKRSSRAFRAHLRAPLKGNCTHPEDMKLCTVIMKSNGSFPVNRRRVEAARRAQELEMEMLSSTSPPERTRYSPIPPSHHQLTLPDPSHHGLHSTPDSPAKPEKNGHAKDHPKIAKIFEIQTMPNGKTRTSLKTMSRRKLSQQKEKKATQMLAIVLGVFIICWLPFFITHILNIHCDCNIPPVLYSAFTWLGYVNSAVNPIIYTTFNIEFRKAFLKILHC
row,Variant,effect of a mutation on the interaction
1,R264Q,increasing interaction

# Variants of: B1
# Conditions: with drd2_human DRD2, P14416
# Remark: another data set of the same source
row,Variant,effect of a mutation on the interaction
1,A83V,decreasing interaction

# Variants of: B2
# Conditions: with drd2_human DRD2, P14416
row,Variant,effect of a mutation on the interaction
1,L100P,increasing interaction

# Variants of: B2
# Conditions: with drd2_mouse Drd2, P61168
# drd2_mouse Drd2, P61168, sequence (P61168 whole entry): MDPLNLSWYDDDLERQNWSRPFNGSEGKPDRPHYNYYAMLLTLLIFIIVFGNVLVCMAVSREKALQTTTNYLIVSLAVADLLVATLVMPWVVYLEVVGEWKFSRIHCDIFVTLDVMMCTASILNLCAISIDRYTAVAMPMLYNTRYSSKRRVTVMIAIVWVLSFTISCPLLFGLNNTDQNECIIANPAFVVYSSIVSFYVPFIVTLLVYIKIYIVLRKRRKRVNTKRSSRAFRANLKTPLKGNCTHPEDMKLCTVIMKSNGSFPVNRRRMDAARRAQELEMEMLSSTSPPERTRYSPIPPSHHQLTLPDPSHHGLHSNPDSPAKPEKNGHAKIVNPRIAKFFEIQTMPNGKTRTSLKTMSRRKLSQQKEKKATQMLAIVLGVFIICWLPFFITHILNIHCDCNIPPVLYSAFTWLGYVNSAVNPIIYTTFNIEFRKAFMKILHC
row,Variant,effect of a mutation on the interaction
1,L100P,increasing interaction
